Assay results reported in FireProtDB (doi:10.1021/bi00416a052).

B1: Ribonuclease HI, P0A7Y4 (parent)
chain: MLKQVEIFTDGSCLGNPGPGGYGAILRYRGREKTFSAGYTRTTNNRMELMAAIVALEALKEHCEVILSTDSQYVRQGITQWIHNWKKRGWKTADKKPVKNVDLWQRLDAALGQHQIKWEWVKGHAGHPENERCDELARAAAMNPTLEDTGYQVEV

Variants of: B1
Settings: Escherichia coli (strain K12), Thermal, CD, NaCl 0.1 M, reversible: yes, structure 2RN2, whole UniProt chain shown
[1] = pH 3, 49.8 °C, glycine-HCl 10 mM
[2] = pH 5.5, 52 °C, Sodium acetate 20 mM

Variant | ddG of mutation (higher = less stable) [1] [kcal/mol] | Tm (pH 3, glycine-HCl 10 mM) [°C] | change of melting temperature, mutant - wild type (higher = more stable) (pH 3, glycine-HCl 10 mM) [°C] | ddG of mutation (higher = less stable) [2] [kcal/mol] | Tm (pH 5.5, Sodium acetate 20 mM) [°C] | change of melting temperature, mutant - wild type (higher = more stable) (pH 5.5, Sodium acetate 20 mM) [°C]
V74L | -1.1 | 53.5 | 3.7 | -0.9 | 55.3 | 3.3
V74I | -0.7 | 52.2 | 2.4 | -0.6 | 54.1 | 2.1
V74A | 2.2 | 42.2 | -7.6 | 3.4 | 39.3 | -12.7
